# Laboratory results from paper PMC5253658, “SCIMP is a transmembrane non-TIR TLR adaptor that promotes proinflammatory cytokine production from macrophages” (Nature Communications, 2017).
# T1: His-TLR4-TIR (cytoplasmic TIR domain of mouse TLR4, amino acids 670-835) (mouse, UniProt Q9QUK6 670-835)
# T1 construct: TLR4, mouse, cytoplasmic TIR domain, amino acids 670-835; codon-optimized gene from Genscript; subcloned into pET28a; also called His-tagged TLR4-TIR domain; recombinant TLR4-TIR; source: E. coli, purified (Ni-NTA)
# T1 sequence (looked up): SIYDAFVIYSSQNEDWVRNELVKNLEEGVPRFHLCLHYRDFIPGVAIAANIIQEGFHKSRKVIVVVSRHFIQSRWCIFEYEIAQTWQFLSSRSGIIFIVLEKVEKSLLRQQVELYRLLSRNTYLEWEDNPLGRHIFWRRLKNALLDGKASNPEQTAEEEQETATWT
# B1: GST-SCIMP-T1 Y96F (domain or fragment)
# chain: not shown
# notes: SCIMP, mouse, T1, amino acids 29-150, Y96F; also called (unphosphorylated) Y96F SCIMP mutant; source: E. coli, purified (glutathione-Sepharose beads)
# B2: GST-SCIMP-T2 (C terminal region of murine SCIMP, amino acids 93-150) (domain or fragment)
# chain: not shown
# notes: SCIMP, mouse, C terminal region, amino acids 93-150; lacks the PRD; subcloned into pGEX6p-1; source: E. coli, purified (glutathione-Sepharose beads)
# B3: fluorescently labelled recombinant SCIMP-T1 (BODIPY FL) (domain or fragment)
# chain: not shown
# modifications: labelled with BODIPY FL Iodoacetamide
# notes: SCIMP, mouse, T1, amino acids 29-150; also called labelled SCIMP; fluorescently labelled SCIMP-T1; source: E. coli, purified
# B4: GST-SCIMP-T1 (entire intracellular region of murine SCIMP, amino acids 29-150) (domain or fragment)
# chain: not shown
# notes: subcloned into pGEX6p-1; also called SCIMP-GST; source: E. coli, purified (glutathione-Sepharose beads)
# Legend:
# [1] = target: T1, His-TLR4-TIR (cytoplasmic TIR domain of …); assay: pull-down; GST-SCIMP (T1, T2 or T1 mutants) as bait, recombinant His-TLR4-TIR as prey; immunoblot against the His tag; conditions: both partners purified
# [2] = target: T1, His-TLR4-TIR (cytoplasmic TIR domain of …); assay: other fluorescence titration; BODIPY FL-labelled SCIMP-T1 titrated with unlabelled TLR4-TIR; 25 °C, 30 mM Tris pH 7.4, 150 mM NaCl, 1 mM dithiothreitol; curve fit (Grafit); conditions: both partners purified
Binder,binding result [1],Kd [2] [nM]
B1,binds,–
B2,binds,–
B3,–,212
B4,binds,–
